{
  "source": "FireProtDB (doi:10.1016/j.jmb.2005.05.056)",
  "settings": "Thermus thermophilus; pH 8; 25 °C; GdnHCl; Fluorescence; Tris-HCl 50 mM; reversible: No; whole UniProt chain shown",
  "note": "Values joined by “and” are separate entries in the source; they are usually repeats but may differ in a detail not shown here. Equal entries are not always repeated.",
  "data": [
    {"protein": "Small ribosomal subunit protein bS6 wild type, P23370 (protein) MRRYEVNIVLNPNLDQSQLALEKEIIQRALENYGARVEKVEELGLRRLAYPIAKDPQGYFLWYQVEMPEDRVNDLARELRIRDNVRRVMVVKSQEPFLANA", "values": [
      {"measurement": "denaturant m value", "value": "2.54 kcal/mol/M and 2.76 kcal/mol/M and 2.7 kcal/mol/M"}
    ]}
  ]
}
